Source: publication PMC4742562, “Structure and Interactions of a Dimeric Variant of sHIP, a Novel Virulence Determinant of Streptococcus pyogenes” (Frontiers in Microbiology, 2016)

Target: protein sHIP (streptococcal Histidine-rich glycoprotein Interacting Protein), sHIPwt (S. pyogenes)
Assay: AUC; sedimentation velocity, 20°C, 50000 rpm, 20 mM MES pH 5.5; c(S) distribution compared with theoretical sedimentation coefficients (HYDROPRO)

## protein sHIP (streptococcal Histidine-rich glycoprotein Interacting Protein), sHIPwt (natural protein)
  stoichiometry N: 4
